Laboratory results from patent publication US11142588B2, “Polypeptides which bind C-X-C chemokine receptor type 4 (CXCR4) and methods of treating or reducing the risk of fibrosis and cancer” (AdAlta Limited, priority 2015, dated 2021).
Where “and” joins values, the source holds several entries; their conditions need not be identical. Identical values can stand only once.

Columns and labels:
[1] = test system: human CD34+CD38− HSC; assay: In vitro flow cytometric binding to HSC; assay type: cell-based; conditions: 10 μg/ml; for binding to human Cord Blood HSC: in decreasing avidity
Procedure: To determine whether CXCR4 i-bodies bind HSC, in vitro binding analysis to human CD34+CD38^− cells was assessed. Umbilical cord blood (CB) and human bone marrow (BM) were collected as previously described (Nilsson S K et al, 2005 15; 106(4):1232-9; Grassinger, 2009 2; 114(1):49-59). Enriched human BM CD34+ cells and purified CB CD34^+ cells were isolated as previously described (Grassinger, 2009). Human CB and BM CD34+ cells and huNSG BM were stained sequentially with CXCR4 i-bodies (10 μg/ml), anti-His-PE and an antibody cocktail containing CD34-FITC (BD Biosciences #348053) and CD38-BV421 (BD Horizon #562444), washed with PBS (0.5% BSA) and analysed by flow cytometry on a Cytopeia Influx (BD) as previously described (Grassinger, 2009). For analysis of human and murine BM and PB, up to 5×10^6 cells were analyzed at 10-20,000 cells/sec. Data were analyzed using FlowJo 10 software (FlowJo, LLC). For analysis of huNSG BM, huCD45-PECy7 (BD Biosciences #557748) and muCD45-BUV395 (BD Biosciences #564279) were also included in the antibody cocktail. HSC from human CB and BM were defined as CD34+CD38− and HSC from huNSG mice were defined as muCD45^−huCD45^+CD34^+CD38^−. CB and BM samples from 3 individual donors and BM from 3 individual huNSG mice were assessed.

[2] = target: T1, CXCR4 (Homo sapiens, UniProt P61073); assay: Calcium flux assay (Screen Quest Fluo-8, FLIPR) in antagonist mode; assay type: cell-based; conditions: SDF-1 at EC80
Procedure: Inhibition of Ca2+ influx by controls or i-bodies (IC50) was then determined.
Mammalian cells stably expressing human CXCR4 receptor were produced in-house by Multispan, Inc (catalog no. C1004-1). Control agonist used was SDF-1 (Peprotech, Cat #300-28A).
Cells were seeded in 384-well plate at an appropriate density and cultured overnight. Calcium assay was conducted according to the manufacturer's protocols. The calcium dye loading buffer was added to the cells and incubated for one hour at 37° C. Calcium flux was monitored for 120 seconds with compound injected into the wells at 19th second. In antagonist mode, carrier or compounds were preincubated with the cells for 30 minutes before calcium flux measurement with the control agonist at EC80 concentration obtained from dose-response curve.

[3] = target: T2, human CXCR4 (CXCR4 positive lipoparticles) (Homo sapiens, UniProt P61073); assay: Biacore SPR kinetic binding to immobilised CXCR4 lipoparticles
T2 construct: purchased Integral Molecular LEV-101B

[4] = target: T1, CXCR4; assay: HitHunter cAMP assay in antagonist mode; assay type: cell-based; conditions: SDF-1 at EC80, forskolin 15 μM, read-out: cAMP inhibition IC50
Source text: Hit Hunter® cAMP assays monitor the activation of a GPCR via an inhibitory regulative G-protein (Gi) and a stimulative regulative G-protein (Gs) secondary messenger signaling in a homogenous, non-imaging assay format using a technology developed by DiscoveRx called Enzyme Fragment Complementation (EFC) with β-galactosidase (β-Gal) as the functional reporter. The enzyme is split into two complementary portions: EA for Enzyme Acceptor and ED for Enzyme Donor. ED is fused to cAMP and in the assay competes with cAMP generated by cells for binding to a cAMP-specific antibody. Active β-Gal is formed by complementation of exogenous EA to any unbound ED-cAMP.
cAMP Hunter cell lines were expanded from freezer stocks according to standard procedures. The cells were then seeded in a total volume of 20 μL into white walled, 384-well microplates and incubated at 37° C. for the appropriate time prior to testing. cAMP modulation was determined using the DiscoveRx HitHunter cAMP XS+ assay according to manufacturer's instructions. […]
After appropriate compound incubation, assay signal was generated through incubation with 20 μL cAMP XS+ ED/CL lysis cocktail for one hour followed by incubation with 20 μL cAMP XS+ EA reagent for three hours at room temperature. Microplates were read following signal generation with a PerkinElmer Envision™ instrument for chemiluminescent signal detection.

[5] = CXCR4 expressed on lipoparticles (Table 4)

T2 sequence (P61073 whole entry): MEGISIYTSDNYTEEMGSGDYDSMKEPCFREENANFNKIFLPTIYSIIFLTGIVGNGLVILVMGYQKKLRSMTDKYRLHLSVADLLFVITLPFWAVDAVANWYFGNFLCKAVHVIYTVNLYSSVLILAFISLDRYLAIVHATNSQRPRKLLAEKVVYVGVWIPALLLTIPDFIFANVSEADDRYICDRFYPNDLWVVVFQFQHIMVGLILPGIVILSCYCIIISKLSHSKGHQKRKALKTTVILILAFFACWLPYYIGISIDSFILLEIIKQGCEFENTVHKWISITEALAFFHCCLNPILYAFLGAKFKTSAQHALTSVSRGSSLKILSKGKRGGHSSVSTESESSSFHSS
T1 sequence (P61073 whole entry): as above

Molecule | binding to human Bone Marrow HSC and Bone Marrow from huNSG mice [1] | binding to human Cord Blood HSC [1] | Calcium Inhibition EC50 [2] | Kd [3, 5] | dissociation rate constant (kd) [3, 5] | dissociation rate constant (kd) ([3]; off-rate, CXCR4 expressed on lipoparticles (Table 3)) | IC50 [4]
AM3-114: affinity matured CXCR4 i-body, SEQ ID NO: 40 | effectively bound | effectively bound |  |  |  |  | 
AM3-523: affinity matured CXCR4 i-body, SEQ ID NO: 56 (protein, protein sequence encoding AM3-523) LQVDIVPSQGEISVGESKFFLCQVAGSGSHMRISWFSPNGEKLTPNQQRISVVWNDDSSSTLTIYNANIDDAGIYKCVVWVGGYRHRALVLGEATVNVKIFQ |  | effectively bound | uM | 9.47 nM and 8.53 nM | 9150 M⁻¹ s⁻¹ and 8610 M⁻¹ s⁻¹ | 0.00998 | 225 nM
